In EP4431526A1 (Emfret Analytics GmbH & Co. KG, dated 2024):
Changes are numbered by the printed parent chain. Ends that are not written are not given here.

T1: human GPVI-Fc fusion protein (human, UniProt Q9HCN6 21-267, limits assumed)
T1 construct: also called human GPVI protein antigen
T1 sequence (looked up): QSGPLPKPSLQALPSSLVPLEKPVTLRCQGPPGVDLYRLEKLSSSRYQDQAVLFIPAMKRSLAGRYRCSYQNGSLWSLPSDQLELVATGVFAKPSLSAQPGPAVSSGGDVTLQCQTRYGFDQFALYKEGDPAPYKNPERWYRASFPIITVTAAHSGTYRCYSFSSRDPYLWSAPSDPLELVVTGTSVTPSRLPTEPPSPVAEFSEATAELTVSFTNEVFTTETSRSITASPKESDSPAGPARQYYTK

T2: GPVI peptide 201V-E215 (human, not fully specified)
T2 construct: On the array as peptide-cellulose conjugate; as soluble (cleavable, Fmoc-rink-amide linker) peptide in the neutralisation; also called Val201 to Glu215
T2 peptide: VVTGTSVTPSRLPTE

T3: GPVI peptide 246S-P260 (human, not fully specified)
T3 construct: On the array as peptide-cellulose conjugate; as soluble (cleavable, Fmoc-rink-amide linker) peptide in the neutralisation; also called Ser246 to Pro260
T3 peptide: SITASPKESDSPAGP

B1: HC3 LC4 humanized Fab (Fab, V domains shown)
VH: QVQLVESGGGVVQPGRSLRLSCVASGFSLTSYGVTWVRQAPGKGLEWVAVIWGDGSTNYHSGLRSRFTISRDNSKNTMFLQMNSLRADDTAVYYCAKPIYYDFDDDAMDYWGQGTLVTVSS
VL: DIVMTQSPATLSLSPGDRATLSCKASQNVGTYVAWYQQKPGQAPRLLIYSASYRCSGIPARFSGSGSGTDFTLTISSLQSEDFAVYYCHQYNNYPLTFGGGTKVEIKR
notes: also called VH3:VL4
B2: HC4 LC4 humanized Fab (Fab, V domains shown)
VH: B1 VH with V23A, A40S, F67L, M78L, F79Y, Q81E, A87T, D88E, V92T, L116K
VL: B1 VL
notes: also called VH4:VL4
B3: HC5 LC1 humanized Fab (Fab, V domains shown)
VH: QVQLQESGPGLVKPSETLSLTCTVSGFSLTSYGVTWIRQPPGKGLEWIGVIWGDGSTNYHSGLRSRVTISVDTSKNQFSLKLSSVTAADTAVYYCAKPIYYDFDDDAMDYWGQGTSVTVSS
VL: EIVLTQSPSSLSASVGDRVTITCKASQNVGTYVAWFQQKPGKAPKSLIYSASYRCSGVPSKFSGSGSGTDFTLTISSLQPEDFATYYCHQYNNYPLTFGQGTKLEIKR
notes: also called VH5:VL1
B4: HC3 LC1 humanized Fab (Fab, V domains shown)
VH: B1 VH
VL: B3 VL
notes: also called VH3:VL1
B5: HC4 LC3 humanized Fab (Fab, V domains shown)
VH: B1 VH with V23A, A40S, F67L, M78L, F79Y, Q81E, A87T, D88E, V92T, L116K
VL: B3 VL with E1D, V3Q, S10T, F36Y, S46L, K61R, D70E, E81D, A84T, L104V
notes: also called VH4:VL3
B6: HC1 LC3 humanized Fab (Fab, V domains shown)
VH: B3 VH with V24A, N76S, S116L
VL: B3 VL with E1D, V3Q, S10T, F36Y, S46L, K61R, D70E, E81D, A84T, L104V
notes: also called VH1:VL3
B7: HC5 LC4 humanized Fab (Fab, V domains shown)
VH: B3 VH
VL: B1 VL
notes: also called VH5:VL4
B8: HC4 LC2 humanized Fab (Fab, V domains shown)
VH: B1 VH with V23A, A40S, F67L, M78L, F79Y, Q81E, A87T, D88E, V92T, L116K
VL: B3 VL with E1D, V3Q, L4M, K39R, S76N, L104V
notes: also called VH4:VL2
B9: HC2 LC3 humanized Fab (Fab, V domains shown)
VH: B3 VH with Q1E, Q5V, S116L
VL: B3 VL with E1D, V3Q, S10T, F36Y, S46L, K61R, D70E, E81D, A84T, L104V
notes: also called VH2:VL3
B10: HC4 LC1 humanized Fab (Fab, V domains shown)
VH: B1 VH with V23A, A40S, F67L, M78L, F79Y, Q81E, A87T, D88E, V92T, L116K
VL: B3 VL
notes: also called VH4:VL1
B11: HC1 LC4 humanized Fab (Fab, V domains shown)
VH: B3 VH with V24A, N76S, S116L
VL: B1 VL
notes: also called VH1:VL4
B12: HC1 LC1 humanized Fab (Fab, V domains shown)
VH: B3 VH with V24A, N76S, S116L
VL: B3 VL
notes: Monovalent 50 kDa Fab from CHO; also called VH1:VL1
B13: HC2 LC1 humanized Fab (Fab, V domains shown)
VH: B3 VH with Q1E, Q5V, S116L
VL: B3 VL
notes: also called VH2:VL1
B14: HC2 LC4 humanized Fab (Fab, V domains shown)
VH: B3 VH with Q1E, Q5V, S116L
VL: B1 VL
notes: also called VH2:VL4
B15: HC5 LC3 humanized Fab (Fab, V domains shown)
VH: B3 VH
VL: B3 VL with E1D, V3Q, S10T, F36Y, S46L, K61R, D70E, E81D, A84T, L104V
notes: also called VH5:VL3
B16: HC2 LC2 humanized Fab (Fab, V domains shown)
VH: B3 VH with Q1E, Q5V, S116L
VL: B3 VL with E1D, V3Q, L4M, K39R, S76N, L104V
notes: also called VH2:VL2; EMF602
B17: HC3 LC2 humanized Fab (Fab, V domains shown)
VH: B1 VH
VL: B3 VL with E1D, V3Q, L4M, K39R, S76N, L104V
notes: also called VH3:VL2
B18: HC3 LC3 humanized Fab (Fab, V domains shown)
VH: B1 VH
VL: B3 VL with E1D, V3Q, S10T, F36Y, S46L, K61R, D70E, E81D, A84T, L104V
notes: also called VH3:VL3
B19: HC5 LC2 humanized Fab (Fab, V domains shown)
VH: B3 VH
VL: B3 VL with E1D, V3Q, L4M, K39R, S76N, L104V
notes: also called VH5:VL2
B20: Emf6.1^Fab (Fab, V domains shown)
VH: QVQLKESGPGLVQPSQSLSITCTVSGFSLTSYGVTWVRQPPGKGLEWLGVIWGDGSTNYHSGLRSRLSISRDDSKSQVFLKLNSLQTDDTATYYCAKPIYYDFDDDAMDYWGQGTSVTVSS
VL: DIVMTQSQKFMSTSVGDRVSVTCKASQNVGTYVAWFQQKPGQSPKTLIYSASYRCSGVPDRFTGSGSGTDFTLTISNVQSDDLAEYFCHQYNNYPLTFGAGTKLELR
notes: also called Fab fragments of Emf6.1
B21: HC0 LC0 chimeric Fab fragment (Fab, V domains shown)
VH: B20 VH
VL: DIVMTQSQKFMSTSVGDRVSVTCKASQNVGTYVAWFQQKPGQSPKTLIYSASYRCSGVPDRFTGSGSGTDFTLTISNVQSDDLAEYFCHQYNNYPLTFGAGTKLELRR
notes: Murine variable domains with human Ig constant domains, expressed in CHO; also called HC0 LCD; chimeric control antibody
B22: Emf6.1 IgG (mouse IgG2a kappa) (antibody, V domains shown)
VH: B20 VH
VL: B20 VL
notes: Mouse monoclonal IgG2a kappa from hybridoma (subclone of Emf6)

Tests used:
[1] = target: T1, human GPVI-Fc fusion protein; assay: BLI (Octet), GPVI-Fc on biosensor, 1:1 fit
[2] = target: human GPVI, membrane expressed on platelets (human) (UniProt Q9HCN6); assay: cell-based or functional assay
[3] = target: human GPVI, membrane expressed on platelets (human) (UniProt Q9HCN6); assay: flow cytometry ex vivo, hGP6^tg/tg platelets, 48 h after 4 mg/kg i.v.
[4] = target: human GPVI, membrane expressed on platelets (human) (UniProt Q9HCN6); assay: flow cytometry ex vivo, hGP6^tg/tg platelets, 72 h after 4 mg/kg i.v.
[5] = target: T1, human GPVI-Fc fusion protein; assay: method not stated at this place (BLI elsewhere); target printed as 'human GPVI'
[6] = target: human GPVI, membrane expressed on platelets (human) (UniProt Q9HCN6); assay: flow cytometry ex vivo, hGP6^tg/tg platelets, competition with Emf3-FITC, 1 h after 4 mg/kg i.v.
[7] = target: human GPVI, membrane expressed on platelets (human) (UniProt Q9HCN6); assay: flow cytometry ex vivo, hGP6^tg/tg platelets, competition with Emf3-FITC, 24 h after 4 mg/kg i.v.
[8] = target: human GPVI, membrane expressed on platelets (human) (UniProt Q9HCN6); assay: flow cytometry ex vivo, hGP6^tg/tg platelets, competition with Emf3-FITC, 48 h after 4 mg/kg i.v.
[9] = target: human GPVI, membrane expressed on platelets (human) (UniProt Q9HCN6); assay: flow cytometry ex vivo, hGP6^tg/tg platelets, competition with Emf3-FITC, 72 h after 4 mg/kg i.v.
[10] = target: human GPVI, membrane expressed on platelets (human) (UniProt Q9HCN6); assay: flow cytometry ex vivo, hGP6^tg/tg platelets, competition with Emf3-FITC, 96 h after 4 mg/kg i.v.
[11] = target: human GPVI, membrane expressed on platelets (human) (UniProt Q9HCN6); assay: flow cytometry ex vivo, hGP6^tg/tg platelets, competition with Emf3-FITC, 120 h after 4 mg/kg i.v.
GPVI peptide 201V-E215 = target: T2, GPVI peptide 201V-E215; assay: peptide microarray, HRP anti-mouse IgG
GPVI peptide 246S-P260 = target: T3, GPVI peptide 246S-P260; assay: peptide microarray, HRP anti-mouse IgG

Binder	Kd [1]	koff [1]	kon [1]	other results
B1	0.431 nM	0.000618 s⁻¹	1.43e+06 M⁻¹ s⁻¹	
B2	0.572 nM	0.000412 s⁻¹	720000 M⁻¹ s⁻¹	
B3	0.333 nM	0.000261 s⁻¹	782000 M⁻¹ s⁻¹	
B4	0.353 nM	0.000587 s⁻¹	1.66e+06 M⁻¹ s⁻¹	
B5	0.593 nM	0.000655 s⁻¹	1.1e+06 M⁻¹ s⁻¹	
B6	0.284 nM	0.000221 s⁻¹	777000 M⁻¹ s⁻¹	
B7	0.554 nM	0.000319 s⁻¹	576000 M⁻¹ s⁻¹	
B8	0.395 nM	0.000508 s⁻¹	1.29e+06 M⁻¹ s⁻¹	
B9	0.25 nM	0.000144 s⁻¹	576000 M⁻¹ s⁻¹	
B10	0.425 nM	0.000339 s⁻¹	797000 M⁻¹ s⁻¹	
B11	0.496 nM	0.000333 s⁻¹	671000 M⁻¹ s⁻¹	
B12	0.413 nM	0.000332 s⁻¹	804000 M⁻¹ s⁻¹	
B13	0.269 nM	0.000189 s⁻¹	703000 M⁻¹ s⁻¹	
B14	0.693 nM	0.0011 s⁻¹	1.59e+06 M⁻¹ s⁻¹	
B15	0.637 nM	0.000437 s⁻¹	686000 M⁻¹ s⁻¹	
B16	0.175 nM	0.000162 s⁻¹	931000 M⁻¹ s⁻¹	
B17	0.215 nM	0.000362 s⁻¹	1.68e+06 M⁻¹ s⁻¹	
B18	0.299 nM	0.000561 s⁻¹	1.87e+06 M⁻¹ s⁻¹	
B19	0.367 nM	0.00024 s⁻¹	655000 M⁻¹ s⁻¹	
B20				thrombus volume on collagen under flow (1000 s^-1), human blood [2]: 75 % reduction; receptor occupancy [3]: > 50%; receptor occupancy [4]: > 35%; Kd [5]: 0.46 nM; % of the binding epitopes on GPVI occupied [6]: 90%; % of the binding epitopes on GPVI occupied [7]: 76%; % of the binding epitopes on GPVI occupied [8]: 50%; % of the binding epitopes on GPVI occupied [9]: 36%; % of the binding epitopes on GPVI occupied [10]: 19%; % of the binding epitopes on GPVI occupied [11]: 13%
B21	0.427 nM	0.000212 s⁻¹	496000 M⁻¹ s⁻¹	
B22				binding result (GPVI peptide 201V-E215): binds; binding result (GPVI peptide 246S-P260): binds
